Reference: US12083109B2, “Neurokinin antagonists and uses thereof” (California Institute of Technology, priority 2017, dated 2024)
“Also recorded” adds a separate entry of the source.

System: Tac2
Assay: Looming disk assay, Tac2 shRNA knockdown
Assay type: in vivo, mouse
Conditions: SIS mice
Excerpt: Small hairpin RNA (shRNA) for the mouse Tac2 gene (NM_009312.2) were designed using the online designing tool siDirect 2.0 (http://sidirect2.mai.jp/) (Naito et al., 2009; incorporated by reference in its entirety).
8-16 week old mice were anesthetized with isoflurane and mounted in a stereotaxic apparatus (Kopf Instruments). Anesthesia was maintained throughout surgery at 1-1.5% isoflurane. The skull was exposed and small burr holes produced dorsal to each injection site using a stereotaxic mounted drill. Virus was backfilled into pulled fine glass capillaries (˜50 μm diameter at tip) and pressure injections of 300 nl were made bilaterally into either the dBNSTa (AP +0.25, ML ±0.85, DV −4.1), DMH (AP −1.3, ML±0.35, DV −5.6), or CeA (AP −1.4, ML ±2.6, DV −4.73) at a rate of 30nl per minute using a nanoliter injector (Nanoliter 2000, World Precision Instruments) controlled by an ultra microsyringe pump (Micro4, World Precision Instruments). Capillaries remained in place for 5 minutes following injections to allow for full diffusion of virus and to reduce backflow up the injection tract. Skin above the skull was then drawn together and sealed with GLUture (Zoetis). For bilateral cannula implantations, single or double guide cannulas (custom, Plastics One) aimed 0.5 mm above each region were implanted and held in place with dental cement (Parkell). Compatible dummy cannulas with a 0.5 mm protrusion at the tip were inserted to prevent cannula clogging. Directly following surgery, mice were given a subcutaneous injection of ketoprofen (2 mg/kg) and supplied with drinking water containing 400 mg/L sulphamethoxazole and 200 mg/L ibuprofen and monitored for 7 days. Dummies were replaced every 2-3 days to keep cannula tracts clean. All injections were subsequently verified histologically.
Freezing behavior to presentation of an overhead looming disk proceeded as previously described (Kunwar et al., 2015; Yilmaz and Meister, 2013; incorporated by reference in their entirety). Briefly, mice were transported to a novel behavioral testing room. […] Behavior was recorded using a video recorder attached to a laptop equipped with video capture software (Corel VideoStudio Pro). Acute freezing behavior to the looming disk (“during”) as well as in the 30 seconds following the last disk (“post”) were scored manually (Behavior Annotator, MATLAB) by an observer blind to environmental conditions.
To further investigate a role for local Tac2 release in mediating different effects of SIS, we asked next whether Tac2 synthesis played a role in each of the three brain regions studied, via targeted shRNAi-mediated knockdown of Tac2. […] Injections were histologically verified by zsGreen fluorescence. […]

B1: shRNA-1: small hairpin RNA for mouse Tac2 gene (SEQ ID NO: 9, 10), expressed from AAV5-H1-shRNA-CMV-zsGreen (nucleic acid)
chain 1: CCGACGTGGTTGAAGAGAACACCGCTTCCTGTCACGGTGTTCTCTTCAACCACGTCTTTTTT
chain 2: AAAAAAGACGTGGTTGAAGAGAACACCGTGACAGGAAGCGGTGTTCTCTTCAACCACGTCGG
freezing to looming disk (acute, during stimulus) (AAV shRNA in CeA): blocked | acute (during) freezing to looming disk (AAV shRNA in dBNSTa): had no effect | persistent (post) freezing to looming disk (AAV shRNA in dBNSTa): blocked; also recorded: strongly reduced

B2: shRNA-2: small hairpin RNA for mouse Tac2 gene (SEQ ID NO: 11, 12), expressed from AAV5-H1-shRNA-CMV-zsGreen (nucleic acid)
chain 1: CCGCCTCAACCCCATAGCAATTAGCTTCCTGTCACTAATTGCTATGGGGTTGAGGCTTTTTT
chain 2: AAAAAAGCCTCAACCCCATAGCAATTAGTGACAGGAAGCTAATTGCTATGGGGTTGAGGCGG
acute (during) freezing to looming disk (AAV shRNA in dBNSTa): additionally reduced; also recorded: significantly reduced
